Laboratory results as given in patent US20080311599.
Positions count from the first letter of the chain named.

Key:
[1] = target: T1, p72
T1 chain: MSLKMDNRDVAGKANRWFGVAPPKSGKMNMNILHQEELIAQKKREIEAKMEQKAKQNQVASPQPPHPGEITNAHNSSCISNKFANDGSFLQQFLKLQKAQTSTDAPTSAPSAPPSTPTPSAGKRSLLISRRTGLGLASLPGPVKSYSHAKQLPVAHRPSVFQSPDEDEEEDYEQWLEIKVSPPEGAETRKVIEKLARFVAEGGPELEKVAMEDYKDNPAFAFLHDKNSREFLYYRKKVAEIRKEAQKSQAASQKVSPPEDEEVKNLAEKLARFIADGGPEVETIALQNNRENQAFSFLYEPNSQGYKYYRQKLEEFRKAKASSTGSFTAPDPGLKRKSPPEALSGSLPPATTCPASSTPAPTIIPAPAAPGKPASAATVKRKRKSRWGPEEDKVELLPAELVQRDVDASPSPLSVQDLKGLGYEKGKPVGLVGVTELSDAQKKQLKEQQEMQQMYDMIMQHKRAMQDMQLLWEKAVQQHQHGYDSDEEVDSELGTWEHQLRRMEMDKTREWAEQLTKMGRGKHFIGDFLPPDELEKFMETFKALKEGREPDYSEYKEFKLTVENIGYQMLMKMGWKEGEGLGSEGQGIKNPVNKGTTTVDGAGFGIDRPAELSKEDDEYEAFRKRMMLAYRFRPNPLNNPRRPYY

[2] = target: T2, p72 (D600E)
T2 chain: T1 chain with D600E

[3] = target: T3, p72 (1-600)
T3 chain: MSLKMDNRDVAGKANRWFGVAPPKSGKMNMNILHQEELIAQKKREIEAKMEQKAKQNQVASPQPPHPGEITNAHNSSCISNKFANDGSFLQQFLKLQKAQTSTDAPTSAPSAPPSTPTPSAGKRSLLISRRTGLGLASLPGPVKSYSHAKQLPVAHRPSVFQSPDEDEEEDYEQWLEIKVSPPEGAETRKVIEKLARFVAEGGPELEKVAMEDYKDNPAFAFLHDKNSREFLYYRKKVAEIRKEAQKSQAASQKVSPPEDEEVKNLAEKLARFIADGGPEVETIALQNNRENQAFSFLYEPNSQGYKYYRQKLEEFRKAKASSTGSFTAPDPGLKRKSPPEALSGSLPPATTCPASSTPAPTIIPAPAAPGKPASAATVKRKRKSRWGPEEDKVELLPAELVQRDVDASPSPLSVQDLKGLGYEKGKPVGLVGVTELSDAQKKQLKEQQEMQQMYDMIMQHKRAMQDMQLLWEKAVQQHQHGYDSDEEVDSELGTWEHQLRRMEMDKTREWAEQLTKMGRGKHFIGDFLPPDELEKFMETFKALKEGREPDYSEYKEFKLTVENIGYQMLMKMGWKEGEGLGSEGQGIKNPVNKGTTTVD

B1: recombinant active caspase-8 (protein)
chain 1: EELCGVMTISDSPREQDSESQTLDKVYQMKSKPRGYCLIINNHNFAKAREKVPKLHSIRDRNGTHLDAGALTTTFEELHFEIKPHHDCTVEQIYEILKIYQLMDHSNMDCFICCILSHGDKGIIYGTDGQEAPIYELTSQFTGLKCPSLAGKPKVFFI
chain 2: MDFSRNLYDIGEQLDSEDLASLKFLSLDYIPQRKQEPIKDALMLFQRLQEKRMLEESNLSFLKELLFRINRLDLLITYLNTRKEEMERELQTPGRAQISAYRFHFCRMSWAEANSQCQTQSVPFWRRVDHLLIRVMLYQISEEVSRSELRSFKFLLQEEISKCKLDDDMNLLDIFIEMEKRVILGEGKLDILKRVCAQINKSLLKIINDYEEFSKGEELCGVMTISDSPREQDSESQTLDKVYQMKSKPRGYCLIINNHNFAKAREKVPKLHSIRDRNGTHLDAGALTTTFEELHFEIKPHHDCTVEQIYEILKIYQLMDHSNMDCFICCILSHGDKGIIYGTDGQEAPIYELTSQFTGLKCPSLAGKPKVFFIQACQGDNYQKGIPVETDSEEQPYLEMDLSSPQTRYIPDEADFLLGMATVNNCVSYRNPAEGTWYIQSLCQSLRERCPRGDDILTILTEVNYEVSNKDDKKNMGKQMPQPTFTLRKKLVFPSD
cleavage of 35S-labelled p72 in vitro, SDS-PAGE and phospho-imaging [1]: This band disappears after addition of activated caspase-8 for 1 hour and a new smaller fragment corresponding to 68 kDa appears (lane 4)
cleavage of 35S-labelled p72 mutant in vitro, SDS-PAGE and phospho-imaging [2]: the same protein profile of p72 D600E mutant is observed in the presence or absence of caspase-8
cleavage of 35S-labelled p72 mutant in vitro, SDS-PAGE and phospho-imaging [3]: The p72 1-600 mutant co-migrates with the 68 kDa fragment produced after cleavage of the wild type p72 and is not further cleaved by addition of caspase-8 (lanes 2 and 5)
